B1: Homeobox protein cut-like 1, residues 548 to 629; numbered along this chain, P39880 (parent)
chain: GEEMDTAEIARQVKEQLIKHNIGQRIFGHYVLGLSQGSVSEILARPKPWNKLTVRGKEPFHKMKQFLSDEQNILALRSIQGR

Variants of: B1
Experiment: abundance fitness (aPCA) (normalised: wild type 0, dead -1); higher = more abundant; growth selection in yeast, the domain comes from the species named
Conditions: Homo sapiens

Abundance fitness: each site, then its substitutions
I79: T -0.157; C 0.003; Y -0.097; L 0.028; D -0.233; W -0.09; P -0.229; H -0.009; K 0.038; V 0.015; Q 0.011; M 0.046; F -0.086; R -0.065; A -0.047; E -0.058; G -0.203
N72: D -0.221; T -0.115; I -0.289; A 0.049; W -0.131; V -0.315; M -0.132; G -0.04; L -0.251; K -0.007; R -0.137; H -0.063; Q 0.03; Y -0.099; C -0.098; F -0.143; P -0.432
L76: C -0.484; R -0.945; A -0.638; T -0.752; P -0.586; N -0.856; Q -0.6; I -0.291; G -0.806; M -0.461; D -0.716; S -0.697; V -0.357; E -0.758; K -0.861
S78: Y -0.223; M -0.009; H -0.053; K 0.044; V -0.139; T 0.005; R 0.003; G 0.003; C -0.107; F -0.188; P -0.359; N 0.018; A 0.042; E 0.087; W -0.201; D 0.097; I -0.066
Q71: P -0.673; H -0.16; M -0.137; V -0.2; S 0.047; T -0.011; I -0.212; G -0.037; N -0.099; W -0.293; R -0.049; Y -0.257
L74: T -0.087; N -0.064; S -0.083; V 0.017; A -0.039; C -0.162; D -0.019; R -0.041; I 0.032; H 0.007; K 0.029; Y -0.112; Q 0.005; E 0.008; P -0.417; M -0.074; W -0.098; F -0.028; G -0.159
I73: F -0.026; W 0.05; H -0.5; V 0.038; T -0.163; N -0.51; R -0.56; M -0.064; A -0.019; D -0.745; L -0.064; S 0.005; E -0.637; G -0.44; Q -0.336; P -0.303; Y -0.627; C -0.129
R77: N -0.118; C -0.032; W -0.336; L -0.073; P -0.419; D -0.292; F -0.511; S 0.041; M -0.096; E -0.005; V -0.035; H -0.096; A 0.049; I -0.116; G -0.086; K 0.103; Q 0.018
A75: E 0.092; K 0.095; N 0.187; I -0.146; C -0.11; Q 0.038; P -0.314; T 0.012; Y -0.027; V -0.127; W 0.009; R 0.05; F -0.066; L -0.061; D 0.109; M -0.039; S 0.041
Q80: E 0; F -0.278; D -0.089; P -0.098; V 0; W -0.307; L -0.126; K -0.12; I -0.098; C -0.028; S -0.017; T -0.095; M -0.079; R -0.176; A 0.034; N -0.026; G -0.06; H -0.075

— the Human Domainome abundance scans (Beltran et al. 2025)
